Data as given in paper PMC10881392.

Key:
[1] = biological target: HIV-1 capsid (CA) CA (Human immunodeficiency virus 1) (UniProt O93182); conditions: cited from earlier work
[2] = biological target: CPSF6 (313-327) peptide, Q16630-2; assay: FFS; conditions: parent: est. 1.0, read off a plot
CypA, GFP fusion = CypA, GFP fusion (UniProt P62937); assay: FFS; conditions: parent: est. 1.0, read off a plot
[3] = biological target: GFP-Nup98 (1-499), FG-repeat domain (UniProt P52948); assay: FFS; conditions: n = 10 scans; parent: est. 1.0; read off a plot
[4] = biological target: GFP-Nup214 (1210-2090), FG-repeat domain (UniProt P35658); assay: FFS; conditions: n = 15 scans; parent: est. 1.0; read off a plot
[5] = biological target: GFP-Pom121 (266-1249), transmembrane domain truncated (UniProt Q96HA1); assay: FFS; conditions: n = 10 scans; parent: est. 1.0; read off a plot
GFP-Nup42 (full-length) = GFP-Nup42 (full-length) (UniProt O15504); assay: FFS; conditions: n = 10 scans; parent: est. 1.0; read off a plot
[6] = biological target: Nup153 (1407-1423) peptide (UniProt P49790); assay: FFS; conditions: parent: est. 1.0, read off a plot
Chain of Nup153 (1407-1423) peptide (P49790 whole entry, looked up, the tested form may be a part): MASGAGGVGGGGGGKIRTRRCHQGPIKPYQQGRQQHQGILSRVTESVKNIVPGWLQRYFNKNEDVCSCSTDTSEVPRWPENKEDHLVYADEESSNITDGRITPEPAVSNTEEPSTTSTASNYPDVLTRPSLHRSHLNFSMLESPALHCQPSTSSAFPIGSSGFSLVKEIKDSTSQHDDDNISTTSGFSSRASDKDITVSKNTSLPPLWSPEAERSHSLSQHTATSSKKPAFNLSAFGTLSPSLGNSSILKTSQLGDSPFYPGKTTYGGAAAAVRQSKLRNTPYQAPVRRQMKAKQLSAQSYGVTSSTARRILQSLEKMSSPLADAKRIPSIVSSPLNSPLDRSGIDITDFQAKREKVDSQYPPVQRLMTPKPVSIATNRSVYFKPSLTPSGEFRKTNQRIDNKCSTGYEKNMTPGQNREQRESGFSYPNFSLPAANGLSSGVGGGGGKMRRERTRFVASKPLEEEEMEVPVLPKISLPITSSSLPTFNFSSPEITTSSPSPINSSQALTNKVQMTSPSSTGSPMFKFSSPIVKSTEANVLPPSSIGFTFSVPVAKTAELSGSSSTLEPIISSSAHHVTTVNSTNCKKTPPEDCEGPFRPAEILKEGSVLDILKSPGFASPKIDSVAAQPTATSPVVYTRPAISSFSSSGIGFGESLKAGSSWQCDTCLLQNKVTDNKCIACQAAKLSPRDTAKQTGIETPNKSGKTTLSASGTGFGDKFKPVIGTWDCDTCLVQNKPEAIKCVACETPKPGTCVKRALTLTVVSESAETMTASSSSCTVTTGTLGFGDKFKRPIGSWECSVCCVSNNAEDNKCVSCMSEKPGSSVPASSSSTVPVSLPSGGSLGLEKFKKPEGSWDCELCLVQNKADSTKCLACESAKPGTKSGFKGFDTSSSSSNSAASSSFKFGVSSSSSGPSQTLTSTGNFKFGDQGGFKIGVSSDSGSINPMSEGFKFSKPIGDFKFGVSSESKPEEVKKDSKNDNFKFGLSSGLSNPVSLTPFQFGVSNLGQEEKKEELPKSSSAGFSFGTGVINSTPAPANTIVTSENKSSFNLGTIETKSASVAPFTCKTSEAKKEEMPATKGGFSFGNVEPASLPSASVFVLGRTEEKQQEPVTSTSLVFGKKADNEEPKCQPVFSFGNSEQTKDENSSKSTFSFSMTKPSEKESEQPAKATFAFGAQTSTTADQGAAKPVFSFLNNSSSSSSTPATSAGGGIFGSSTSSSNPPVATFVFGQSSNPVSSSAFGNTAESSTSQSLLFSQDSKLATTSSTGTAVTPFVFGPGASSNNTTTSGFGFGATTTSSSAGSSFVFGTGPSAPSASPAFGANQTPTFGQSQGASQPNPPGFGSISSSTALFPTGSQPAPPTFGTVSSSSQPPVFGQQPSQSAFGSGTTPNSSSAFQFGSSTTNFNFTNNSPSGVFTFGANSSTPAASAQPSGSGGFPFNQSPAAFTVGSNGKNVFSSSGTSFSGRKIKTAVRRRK

[7] = biological target: Nup98 fragment 118–345 (13 FGs); assay: FFS; conditions: n = 10 scans; parent: est. 1.1; read off a plot
GFP-Nup62 (full-length) = GFP-Nup62 (full-length) (UniProt P37198); assay: FFS; conditions: n = 10 scans; parent: est. 1.0; read off a plot
[8] = biological target: Nup98 fragment 1–119 (13 FGs); assay: FFS; conditions: n = 10 scans; parent: est. 1.1; read off a plot
[9] = biological target: Nup98 fragment 346–499 (13 FGs); assay: FFS; conditions: n = 10 scans; parent: est. 2.4; read off a plot
GFP-Nup58 (full-length) = GFP-Nup58 (full-length) (UniProt Q9BVL2); assay: FFS; conditions: n = 15 scans; parent: est. 1.0; read off a plot
[10] = biological target: unstructured FG domain of Nup98 (residues 1-499), His-tagged, as phase-separated condensates (human) (UniProt P52948)
[11] = biological target: HIV-1 capsid (CA) unassembled CA (Human immunodeficiency virus 1) (UniProt O93182); conditions: cited from earlier work
[12] = biological target: HIV-1 capsid (CA) hexamer CA (Human immunodeficiency virus 1) (UniProt O93182); conditions: cited from earlier work

Chain of CPSF6 (313-327) peptide, Q16630-2 (Q16630 whole entry, looked up, the tested form may be a part): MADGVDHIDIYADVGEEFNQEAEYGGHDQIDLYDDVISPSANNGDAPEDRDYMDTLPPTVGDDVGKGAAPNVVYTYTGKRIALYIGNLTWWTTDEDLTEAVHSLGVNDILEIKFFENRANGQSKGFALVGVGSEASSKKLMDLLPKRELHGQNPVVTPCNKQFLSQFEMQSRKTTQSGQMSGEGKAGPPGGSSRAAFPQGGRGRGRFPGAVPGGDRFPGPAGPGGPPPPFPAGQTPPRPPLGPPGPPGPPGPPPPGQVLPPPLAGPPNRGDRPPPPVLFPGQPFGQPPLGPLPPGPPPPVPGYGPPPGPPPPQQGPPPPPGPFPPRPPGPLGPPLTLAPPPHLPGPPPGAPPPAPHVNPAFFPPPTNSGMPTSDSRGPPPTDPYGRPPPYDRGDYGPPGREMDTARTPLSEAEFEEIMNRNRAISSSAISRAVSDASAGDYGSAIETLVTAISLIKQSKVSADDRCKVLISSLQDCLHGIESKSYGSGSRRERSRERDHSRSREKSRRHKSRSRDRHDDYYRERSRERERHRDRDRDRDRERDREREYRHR

Substance	ratio to parent [3]	ratio to parent [4]	ratio to parent [5]	ratio to parent (GFP-Nup42 (full-length))	ratio to parent ([6]; n = 10 scans)	ratio to parent ([2]; n = 10 scans)	ratio to parent (CypA, GFP fusion; n = 10 scans)	ratio to parent (GFP-Nup62 (full-length))	also measured
HIV-1 capsid (CA) CA (from UniProt O93182)									Kd [1]: 40 µM
capsid-like particles (CLPs; CA A204C cross-linked assemblies labelled with Alexa Fluor 568), wild-type N74D	1.7	1.8	1.9	1.8	1.4				ratio to parent ([2]; n = 8 scans): 0; ratio to parent (CypA, GFP fusion; n = 8 scans): 1.3
capsid-like particles (CLPs; CA A204C cross-linked assemblies labelled with Alexa Fluor 568), wild-type N57D	0.35	0.2	-0.02	0.35		0.03	1.4	-0.1	response [7]: 0.22; response [8]: 0.19; response [9]: 0.2; ratio to parent (GFP-Nup58 (full-length)): -0.1; ratio to parent ([6]; n = 9 scans): 0.18
capsid-like particles (CLPs; CA A204C cross-linked assemblies labelled with Alexa Fluor 568), wild-type A77V	1.4	1.4	1.7	1.2	3.9	0.15	1.6	1.7	
capsid-like particles (CLPs; CA A204C cross-linked assemblies labelled with Alexa Fluor 568), wild-type (complex)									median penetration depth of unlabelled CLPs into Nup98 condensates, cryo-ET [10]: 65 nm
CPSF6 313-327 (from UniProt Q16630)									Kd [11]: 700 µM; Kd [12]: 50 µM
